Measurements taken from the nanobody polyreactivity screen of Harvey et al. (2022).

Assay: yeast display, Sf9 membrane polyspecificity reagent, FACS + sequencing; frameworks hold sequencing errors
Summary of the method: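 A nanobody's polyreactivity label depends on the gate it was sorted from. Yeast display cells were stained with 10% biotinylated, detergent-solubilized Sf9 membrane reagent for 1 hour at 4 °C, enriched on streptavidin microbeads and sorted by FACS. The low and high (top ~1%) gates were set on anti-HA fluorescence for expression and streptavidin fluorescence for reagent binding.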

Sequence	polyreactivity (PSR sort gate)
QVQLVESGGGLVQAGGSLRLSCAASGITFRYYVMGWYRQAPGKERELVASISWGGGSTYYADSVKGRFTISRDNAKNTVYLQMNSLKPEDTAVYYCAARVPRPSYRGMNYWGQGTQVTVSS	high polyreactivity
QVQLVESGGGLVQAGGSLRLSCAASGITFSFYAMGWYRQAPAKERELVATIDSGGSTNYADSVKWRFTISRDNAKNTVYLQMNSLKPEYTAVYYCAADGVWYYYDMDYWGQGTQVTVSS	low polyreactivity
QVQLVESGGGLVQAGGSLRLSCAASGITFSFYAMGWYRQAPRKERELVAGITRSGGDTYYADSVKGRFTISRDNAKNTVYLQMNSLKPEDTAVYDCADAWFFYRRQYTFFAGRMDYWGQGTQVTVSS	high polyreactivity
QVQLVESGGGLVQAGGSLRLSCAASGITFSGNAMGWYIQARGKERELVAGISRRGGSTYYADSVKGSFTISRDNAKNTVYLQINCLKPEATAVYYCADGRDRYRGVAYDYWGQGTQVTVSS	high polyreactivity
QVQLVESGGGLVQAGGSLRLSCAASGITFSGNAMGWYRQAPGKERELVAAISGRGGSTYYADSVKGRFTISRDNAKNTVYLQMNSLKPVDTAVYYCAADSPENRYNYWGQGTQVTVSS	high polyreactivity
QVQLVESGGGLVQAGGSLRLSCAASGITFSGNTMGWYRQAPGKERELVAAISSGGSTYYADSVKGRFTISRDNAKNTVYLQMNSLKPEDTAVYYCAVDYFYQDGRGYNEYWGQGTQVTVSS	low polyreactivity
QVQLVESGGGLVQAGGSLRLSCAASGITFSGYVMGWYLQAPGKERELVAAISRSGGSTYYADSVKGRYTISRDNAKNTVYLQMNSLKPEDTAVYYCATASRTSRTGWAGYFWGQGTQVTVSS	high polyreactivity
QVQLVESGGGLVQAGGSLRLSCAASGITFSHNAMGWSRPAPGKERELVAVIRWSGGRTYYADSVKGRFTISRDNAKNTVYLQMNSLKPEDTAVYYCAARPSTAFPYGKIMDYWGQGTQVTVSS	low polyreactivity
QVQLVESGGGLVQAGGSLRLSCAASGITFSKNAMGWYRKEPGKEKELVAAISRGGSTYYADSEKGRFTISRDNAKNTVYLQMNSLKPEDTAVYYCAARSRYYYRRPQISYDYWGQGTQVTVSS	low polyreactivity
QVQLVESGGGLVQAGGSLRLSCAASGITFSKYAMGWYRQAPGKERELVAAISQRGGSKYYADSVKGRFTISRDNAKNTVYLQMNSLKPEDTAVYYCNAEFYWSIIAYEYWGQGTQVTVSS	high polyreactivity
QVQLVESGGGLVQAGGSLRLSCAASGITFSRNAMGWYRQAPGKERELVATITSGGSTNYADSVKGRFTISRDNAQNTVYLQMNSLKPEDTAVYYCNAVWNTFISGRSYDYWGQGTQVTVSS	low polyreactivity
QVQLVESGGGLVQAGGSLRLSCAASGITFSRNTMGWYRQAPGKERELVAAISRSGASTYYADSVKGRFTISRDNAKNTVYLQMNSLKPEDTAVYYCAARFHYPGGPRYYYWGQGTQVTVSS	high polyreactivity
QVQLVESGGGLVQAGGSLRLSCAASGITFSRYAMGWYRQAPGKERELVAAISWSGTSTYYADSVKGRFTISRDNAKNTVYLQMNSLKPEDTAVYYCAASYGYYRYGYWGQGTQVTVSS	high polyreactivity
QVQLVESGGGLVQAGGSLRLSCAASGITFSRYAMGWYRQAPGKERELVATITFSGTSTFYADSVKGRFTISRDNAKNRFYLQMNSLKPEDTAVYYCARLRFGSWSTYYYWGQGTQVTVSS	low polyreactivity
QVQLVESGGGLVQAGGSLRLSCAASGITFSRYAMGWYRQAPGKERELVATITFSGTSTFYADSVKGRFTISRDNAKNTVYLQMNSLKPEDTAVYYCARLRFGSWSTYYYWGQGTQVTVSS	low polyreactivity
QVQLVESGGGLVQAGGSLRLSCAASGITFSSNAMGWSRQAPGKERELVAAISSSGGRTYYADSVKVRFTISRDYAKNTVYLQMNSLKPEDTAVYYCAKTSRYYYYSRLYYWGQGTKVTVSS	high polyreactivity
QVQLVESGGGLVQAGGSLRLSCAASGITFSSYAMGWSRQAPGKERELVAAITSRGGSTYYADSVKGRFTISRDNAKNTVYLQMNSLKPEDTAVYYCNASRVRRWNDYYKKFDYWGQGTQVTVSS	high polyreactivity
QVQLVESGGGLVQAGGSLRLSCAASGITFSSYAMGWYRQAPGKERELVAGITRRGGITYYADSVKGRFTISRDNAKNTVYLQMNSLNPEDTAVYYCAATHRFRSGSPDGGYGYWGQGTQVTVSS	high polyreactivity
QVQLVESGGGLVQAGGSLRLSCAASGITFSSYAMGWYRQAPGKERELVAGITRRGRITYYADSVNGRFTISRDNAKNTVYLQMNSLKPEDTAVYYCAATHRFRTGSPDGGFGYWGQGTQVTVSS	high polyreactivity
QVQLVESGGGLVQAGGSLRLSCAASGITFSVYTMGWYRPAPGKERELVAAIDSDGITNYADSVKGRFTISRDNAKNNVYLQMNSLKPEDTAVYYCAKQSGRADGVSGFDYWGQGTQVTVSS	low polyreactivity
QVQLVESGGGLVQAGGSLRLSCAASGITFSYNAMGWSRQAPGKERELVAAISSNSDSTYYADSVKGRFTISRDNAKNTVYLQMNSLKPEDTAVYYCAADTPDAPDYSGFYYWGQGSQVTVSS	low polyreactivity
QVQLVESGGGLVQAGGSLRLSCAASGITFSYNAMGWYRPAPGKERELVAAIRVGDGSTYYADSVKGRFTISRDNAKNTVYLQMNSLNPEDTAVYYCNARYLRLRYPYTDEYNYWGQGTQVTVSS	low polyreactivity

Sequence	polyreactivity (PSR sort gate)
QVQLVESGGGLVQAGGSLRLSCAASGITFSYNAMGWYRPAPGKERELVAAISSNSDSTYYADSVKGRFTISRDNAKNTVYLQMNSLKPEDTAVYYCAADTPDAPDYSGFYYWGQGTQVTVSS	low polyreactivity
QVQLVESGGGLVQAGGSLRLSCAASGITFSYNARGWYRQAPGKERELVAAIRVGDGSTYYADSVKGRFTISRDNAKNTVYLQMHSLKPEDTAVYYWNARYLRLRYPYTDEYNYWGQGTQVTVSS	low polyreactivity
QVQLVESGGGLVQAGGSLRLSCAASGITFSYYALGWYRQAPGKERELVAVISAGGGTTYYADSVKGRFTISRDNAKNTVYLQMNSLKPEDTAVYYCAVKIVVWWGEYDYWGQGTQVTVSS	high polyreactivity
QVQLVESGGGLVQAGGSLRLSCAASGITFTDYAMGWYRQAPGKERELVAAISSRGGSTYYADSVQGRFTISRDNAKNTVYVQMNSLKPEDTAVHYCNARFVRRGSGYDYWGQGTQVTVSS	high polyreactivity
QVQLVESGGGLVQAGGSLRLSCAASGITFTGNAMGWYRQAPGKERELVAAISNRGGSTYYADSVKGRFTISRDNAKNTVYLQMNSLKPEDTAVYYCRTSTPRRVSGNSWGQGTQVTVSS	high polyreactivity
QVQLVESGGGLVQAGGSLRLSCAASGITFTGNAMGWYRQAPGKERELVAAISNRGGSTYYADSVKGRFTISRDNAKNTVYLQMNSLKPEDTAVYYCRTSTPRRVSGNYWGQGTQVTVTS	high polyreactivity
QVQLVESGGGLVQAGGSLRLSCAASGITFTGYAMGWSRQAPGKERELVAAISKRGARTYYADSVKGRFTNSRDNAKNTVYIQMNSLKPEDTAVYYCAADSTAQDIAGLYYWGQGTQVTVSS	high polyreactivity
QVQLVESGGGLVQAGGSLRLSCAASGITFTGYAMGWYRQAPGKERELVAAITWSSGSTYYADSVKGRFTISRDNAKNTVYLQMNSLKPEDTAVYYCNAGYWYDGPDYIPEYDYWGQGTQVTVSS	low polyreactivity
QVQLVESGGGLVQAGGSLRLSCAASGITFTVNAMGWYRQAPGKERELVAAITYSGGNTYYADSVKGRFTISRDTAKNTVYLQMNSLKPEDTAVYYCAADNWPWPEKPDKSILYDYWGQGTQVTVSS	low polyreactivity
QVQLVESGGGLVQAGGSLRLSCAASGITFTVNSMGWYRQAPAKERELVAAISNDGSTYYADSVKGRFTISRDNAKNSVYLQMNRLKTEDTAVYYCAADTWDVFGPYGYDYWGQGTQVTVSS	low polyreactivity
QVQLVESGGGLVQAGGSLRLSCAASGITFTVYAMGWYRQATRKERELVAAITSTGSTNYADSVKGLFTISRDNAKNTVYLQMNSLKPEDTAVYYCAADRQITVYAFDYWGQGTQVTVSS	low polyreactivity
QVQLVESGGGLVQAGGSLRLSCAASGITFTYNAMGWYRPAPGKERELVAAITWSGGSTFYADSVKGRFTISRDNAKNTVYLQMNSLKPEDTAVYYCARDTELYDRWLDYWGQGTQVTVSS	low polyreactivity
QVQLVESGGGLVQAGGSLRLSCAASGITFTYNAMGWYRQAPGKERELVAAITWSGGSTYYADSVKGRFTISRDNAKYTVYLQMNSLKPEDTAVYYCNAKHFAYSVAHPYLRYGYDYWGQGTQVTVSS	low polyreactivity
QVQLVESGGGLVQAGGSLRLSCAASGITFTYYAMGWYRQAPGKERELVAAINWNGGSTYYADSVKGRFTISRDNAKNTVYLQMNSLKPEDTAVYYCAAEFYIYGFVKFDYWGQGTQVTVSS	high polyreactivity
QVQLVESGGGLVQAGGSLRLSCAASGITFTYYAMGWYRQAPGKERELVASITIGGGSTYYADSVKGRFTISRDNAKKTVYLQLNSLKPEYTAVYYCNAAFSVRHLYRYDYWGQGTQVTVSL	low polyreactivity
QVQLVESGGGLVQAGGSLRLSCAASGITFTYYARGWYRQAPGKEMELVAAISWSGGSTYYADSVKGRFTISRDNAKNTVYLQMNSLKPEDTAVYYCAATFSRFAYYYWGQGTQVTVSS	high polyreactivity
QVQLVESGGGLVQAGGSLRLSCAASGITFVANAMGWYRQAPGKERELVAAISYSGASTYADSVKGRFTISRDNAKNTVYLQMNSLKPEDTAVYYCAKDGPYTYGREIYVYWGQGTLVTVSS	low polyreactivity
QVQLVESGGGLVQAGGSLRLSCAASGITFVANAMGWYRQAPGKETELVAGITQTGGSTYYADSVKGRFTISRDKAKNTVYLQMNSQKPEDTAVYYCAATYRRLRYGKLYYYWGQGTQVTVSS	high polyreactivity
QVQLVESGGGLVQAGGSLRLSCAASGITFVDNAMGWYRQAPGKERELVAAISFSGDTTYYADSVKGRFTISRDNEKNTVYLQMNSLKPEDTAVYYCAAEYYYTWVYQYWEMDYWGQGTQVTVSS	low polyreactivity
QVQLVESGGGLVQAGGSLRLSCAASGITFVDYAMGWYRQAPGKEWELVAAITTGGSTNYADSVKGRFTISRDNAKNTVYLQMNRLKPEDTAVYYCNKRPVILYDYWGQGTQVTVSS	low polyreactivity
QVQLVESGGGLVQAGGSLRLSCAASGITFVFNVMGWSRQAPGKERELVADIRSGGTTNYADSVKGRFTISRDNAKNTVYIQMNSLKPEDTAVYYCAKEKYDYVGDYEVDYWGQGTQVTVSS	low polyreactivity
